In patent publication US20230074657A1 (SHANGHAI HENLIUS BIOTECH, published 2023):
Numbering of substitutions follows the chain as printed.

Experiments:
[1] = molecular target: T1, full-length human LAG3 on the cell surface (transfected CHO-S or Jurkat cells) (human, UniProt P18627 23-525); test: flow cytometry on Jurkat cells expressing full-length human LAG3, anti-mouse IgG-FITC
T1 construct: whole, on cells; also called LAG3 on the cell membrane
T1 sequence (looked up): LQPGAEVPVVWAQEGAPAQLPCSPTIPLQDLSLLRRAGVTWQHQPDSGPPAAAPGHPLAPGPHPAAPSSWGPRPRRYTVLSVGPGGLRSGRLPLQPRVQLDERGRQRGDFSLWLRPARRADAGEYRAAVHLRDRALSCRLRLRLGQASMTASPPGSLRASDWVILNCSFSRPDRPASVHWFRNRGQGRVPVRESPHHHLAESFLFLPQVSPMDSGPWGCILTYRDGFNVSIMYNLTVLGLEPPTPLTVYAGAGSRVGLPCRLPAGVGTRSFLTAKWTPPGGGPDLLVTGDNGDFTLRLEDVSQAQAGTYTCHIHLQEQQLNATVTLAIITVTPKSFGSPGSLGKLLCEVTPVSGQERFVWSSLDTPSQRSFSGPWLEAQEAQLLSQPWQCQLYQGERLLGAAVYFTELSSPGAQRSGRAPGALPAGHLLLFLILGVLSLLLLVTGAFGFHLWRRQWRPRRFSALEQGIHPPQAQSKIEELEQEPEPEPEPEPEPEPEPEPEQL
Protocol: (§1) The transfected Jurkat cells expressing the full-length human LAG3 gene are taken and washed twice with PBS (2% FBS), and the cell concentration is adjusted to 2×10⁵/100 μl. […] The cells are centrifuged at 500×g for 5 min. […] The cells are washed twice with PBS (2% FBS). […] The cells are washed twice with PBS (2% FBS). The cells are suspended in 200 μl PBS and analyzed by flow cytometry.

[2] = molecular target: T1, full-length human LAG3 on the cell …; test: flow cytometry on Jurkat cells expressing full-length human LAG3, anti-human IgG Fab-FITC
Protocol: as §1

[3] = molecular target: T2, Recombinant mouse LAG3-Fc fusion protein (mouse, UniProt Q61790 24-442, limits assumed); test: ELISA, plate coated with mouse LAG3-Fc
T2 construct: Bought; not shown: Fc part; not described
T2 sequence (looked up): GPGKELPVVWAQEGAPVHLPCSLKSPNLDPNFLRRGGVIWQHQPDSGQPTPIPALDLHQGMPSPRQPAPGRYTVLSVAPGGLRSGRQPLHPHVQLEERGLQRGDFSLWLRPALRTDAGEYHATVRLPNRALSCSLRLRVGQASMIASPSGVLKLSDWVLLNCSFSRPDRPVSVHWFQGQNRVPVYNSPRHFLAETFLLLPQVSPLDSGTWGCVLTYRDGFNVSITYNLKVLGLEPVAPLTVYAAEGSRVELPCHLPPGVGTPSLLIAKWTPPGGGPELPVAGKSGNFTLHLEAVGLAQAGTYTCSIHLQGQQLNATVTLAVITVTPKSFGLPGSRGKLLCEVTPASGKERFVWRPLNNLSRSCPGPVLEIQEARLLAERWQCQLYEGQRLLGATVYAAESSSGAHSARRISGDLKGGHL
Protocol: The plate is washed 3 times with PBS containing 0.05% Tween 20 (PBST). The plate is blocked with PBS containing 5% skimmed milk for 1 hour at room temperature. […] The plate is washed 3 times with PBST, and 30 μl of 1:2000 diluted horseradish peroxidase-labeled goat anti-human IgG kappa light chain secondary antibody (millipore) is added thereto, and the plate is allowed to stand at room temperature for 1 hour. The plate is washed 6 times with PBST, and TMB is added thereto for color development. The reaction is stopped with 2M H₂SO₄. The plate is read at 450 nm with a microplate reader.

[4] = molecular target: T3, LAG3-Fc recombinant protein (UniProt P18627 23-450); test: ELISA on coated LAG3-Fc, anti-human kappa-HRP
T3 construct: also called LAG3-Fc (Acro); LAG3-Fc protein; not shown: Fc part
T3 sequence (looked up): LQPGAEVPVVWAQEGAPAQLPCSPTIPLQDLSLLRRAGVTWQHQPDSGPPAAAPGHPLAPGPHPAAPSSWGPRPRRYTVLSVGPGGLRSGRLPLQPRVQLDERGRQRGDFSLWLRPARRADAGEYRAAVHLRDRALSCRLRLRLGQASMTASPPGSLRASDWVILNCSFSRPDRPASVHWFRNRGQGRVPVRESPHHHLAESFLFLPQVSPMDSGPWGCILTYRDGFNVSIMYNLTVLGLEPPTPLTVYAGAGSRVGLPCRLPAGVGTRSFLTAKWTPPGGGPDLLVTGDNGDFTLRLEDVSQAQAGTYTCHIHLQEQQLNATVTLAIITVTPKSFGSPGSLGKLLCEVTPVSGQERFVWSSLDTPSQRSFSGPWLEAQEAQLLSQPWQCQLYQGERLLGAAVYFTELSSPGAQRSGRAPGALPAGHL
Protocol: The affinity of the humanized antibody for LAG3 is detected by an ELISA technique. […] The plate is washed 3 times with PBS containing 0.05% Tween 20 (PBST). The plate is blocked with PBS containing 5% skimmed milk for 1 hour at room temperature. […] The plate is washed 3 times with PBST, and 30 μl of 1:4000 diluted horseradish peroxidase-labeled goat anti-human IgG kappa light chain secondary antibody (Millipore) is added thereto, and the plate is allowed to stand at room temperature for 1 hour. The plate is washed 6 times with PBST, and TMB is added thereto for color development. The reaction is stopped with 2M H₂SO₄. The plate is read at 450 nm with a microplate reader.

[5] = molecular target: T1, full-length human LAG3 on the cell …; test: flow cytometry on CHO-S cells expressing full-length human LAG3 [panel 6A]
Protocol: (§2) The binding of the humanized antibodies to LAG3 on the cell surface is determined by a flow cytometry method. The transfected CHO-S or Jurkat cells expressing the full-length human LAG3 gene are taken and washed twice with PBS (2% FBS), and the cell concentration is adjusted to 5×10⁵/100 μl. 1:3 gradient-diluted anti-LAG3 humanized antibody is added, and incubated at 4° C. for 30 min. […] The cells are centrifuged at 500×g for 5 min. The cells are washed twice with PBS (2% FBS). 1:300 diluted goat anti-human IgG Fab-FITC (Thermo Fisher) is added, and incubated at 4° C. for 30 min. The cells are washed twice with PBS (2% FBS). The cells are suspended in 200 μl PBS and analyzed by flow cytometry.

[6] = molecular target: T3, LAG3-Fc recombinant protein; test: SPR, LAG3-Fc immobilized on the chip, antibody in flow, 1:1 Langmuir fit
Protocol: (§3) Surface plasmon resonance (SPR) is used to measure the binding affinity and kinetic constants of the anti-LAG3 humanized antibody for the LAG3 protein. […] The data obtained from the experiments are analyzed using an evaluation software, and the curve is fitted with a 1:1 Langmuir binding model.

Tag1-LAG3 protein = molecular target: T4, Tag1-LAG3 protein (UniProt P18627 23-450); test: HTRF blocking assay (Cisbio kit): Tag1-LAG3 with Tag2-FGL1 and antibody
T4 construct: also called LAG3 (Cisbio kit)
Protocol: The mixture is reacted at room temperature for 15 minutes, and then 10 μL of pre-mixed anti-Tag1-Tb3+ and anti-Tag2-XL665 are added thereto.

[7] = molecular target: T1, full-length human LAG3 on the cell …; test: flow cytometry on Jurkat cells expressing full-length human LAG3 [panel 6B]
Protocol: as §2

[8] = molecular target: T5, Recombinant cynomolgus monkey LAG3-Fc fusion protein (cynomolgus monkey); test: SPR, cynomolgus monkey LAG3-Fc immobilized on the chip, antibody in flow, 1:1 Langmuir fit
T5 construct: Bought; also called cynomolgus monkey LAG3-Fc protein
Protocol: as §3, with “for the cynomolgus monkey LAG3 protein.” for “for the LAG3 protein.”

[9] = molecular target: T3, LAG3-Fc recombinant protein; test: flow cytometry blocking assay: antibody premixed with LAG3-Fc (2 µg/ml), binding to MHC II on Raji cells
Protocol: Raji cells are washed twice with PBS (2% FBS), and the cell concentration is adjusted to 2×10⁵/100 μl. […] The mixture is then mixed with the Raji cells and incubated at 4° C. for 60 min. The cells are centrifuged at 500×g for 5 min. The cells are washed twice with PBS (2% FBS). 1:500 diluted goat anti-human IgG-Fc-Alexa Fluor 488 (Jackson) is added, and incubated at 4° C. for 60 min. The cells are washed twice with PBS (2% FBS). The cells are suspended in 200 μl PBS and analyzed by flow cytometry.

[10] = molecular target: T3, LAG3-Fc recombinant protein; test: ELISA blocking assay: antibody mixed with LSECtin, added to coated LAG3-Fc, bound LSECtin detected with anti-His-HRP
Protocol: The plate is washed 3 times with PBS containing 0.05% Tween 20 (PBST). […] The plate is washed 6 times with PBST, and TMB is added thereto for color development. The reaction is stopped with 2M H₂SO₄. The plate is read at 450 nm with a microplate reader.

B1: anti-LAG3 murine antibody 6H11B10 (antibody, V domains shown)
VH: EVQVVESGGGLVKPGGSLKLSCAASGFTFSDYYMFWVRQTPEERLEWVATINDGGDYTNYPDSVKGRFTISRDNDKNKLYLQMNSLKSEDTAMYYCARESGIYYDYASFGYWGQGTLVTVSS
VL: DIVMTQAAFSNPVTLGTSASISCRSSKSLLYSNGITYLYWYLQKPGQSPQLLIYQMSNLASGVPDRFSSSGSGTDFTLRISRVEAEDVGVYYCAQNLELPWTFGGGTKLEIKRNL
notes: also called m6H11B10; monoclonal hybridoma cell line 6H11B10
- binding result [1]: binds

B2: anti-LAG3 chimeric antibody c6H11B10 (antibody, human IgG4 S228P, V domains shown)
VH: B1 VH
VL: DIVMTQAAFSNPVTLGTSASISCRSSKSLLYSNGITYLYWYLQKPGQSPQLLIYQMSNLASGVPDRFSSSGSGTDFTLRISRVEAEDVGVYYCAQNLELPWTFGGGTKLEIKR
notes: Expressed in CHO-S cells; also called chimeric antibody protein c6H11B10
- binding result [2]: binds

B3: anti-LAG3 humanized antibody h6H11B10 (antibody, human IgG4 S228P)
heavy: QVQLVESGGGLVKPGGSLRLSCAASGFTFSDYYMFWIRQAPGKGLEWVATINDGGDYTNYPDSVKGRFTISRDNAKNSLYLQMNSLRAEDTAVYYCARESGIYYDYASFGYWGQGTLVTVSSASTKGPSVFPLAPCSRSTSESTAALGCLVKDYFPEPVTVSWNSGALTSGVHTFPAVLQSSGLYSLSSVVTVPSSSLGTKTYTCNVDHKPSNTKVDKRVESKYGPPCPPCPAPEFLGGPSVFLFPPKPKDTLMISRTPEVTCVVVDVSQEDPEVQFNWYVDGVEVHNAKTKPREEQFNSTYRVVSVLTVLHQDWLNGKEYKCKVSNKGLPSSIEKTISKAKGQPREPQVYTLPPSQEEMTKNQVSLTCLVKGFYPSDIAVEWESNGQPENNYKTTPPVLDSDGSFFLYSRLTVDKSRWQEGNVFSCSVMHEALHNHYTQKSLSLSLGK
light: DIVMTQSPLSLSVTPGEPASISCRSSKSLLYSNGITYLYWYLQKPGQSPQLLIYQMSNLASGVPDRFSGSGSGTDFTLKISRVEAEDVGVYYCAQNLELPWTFGGGTKLEIKRNLAAPSVFIFPPSDEQLKSGTASVVCLLNNFYPREAKVQWKVDNALQSGNSQESVTEQDSKDSTYSLSSTLTLSKADYEKHKVYACEVTHQGLSSPVTKSFNRGEC
notes: Expressed in CHO-S cells
- binding result [3]: binds
- EC50 (read off the curve) [4]: ~0.3 µg/mL
- EC50 (read off the curve) [5]: ~0.3 µg/mL

B4: anti-LAG3 humanized antibody h6H11B10#40 (antibody, human IgG4 S228P)
heavy: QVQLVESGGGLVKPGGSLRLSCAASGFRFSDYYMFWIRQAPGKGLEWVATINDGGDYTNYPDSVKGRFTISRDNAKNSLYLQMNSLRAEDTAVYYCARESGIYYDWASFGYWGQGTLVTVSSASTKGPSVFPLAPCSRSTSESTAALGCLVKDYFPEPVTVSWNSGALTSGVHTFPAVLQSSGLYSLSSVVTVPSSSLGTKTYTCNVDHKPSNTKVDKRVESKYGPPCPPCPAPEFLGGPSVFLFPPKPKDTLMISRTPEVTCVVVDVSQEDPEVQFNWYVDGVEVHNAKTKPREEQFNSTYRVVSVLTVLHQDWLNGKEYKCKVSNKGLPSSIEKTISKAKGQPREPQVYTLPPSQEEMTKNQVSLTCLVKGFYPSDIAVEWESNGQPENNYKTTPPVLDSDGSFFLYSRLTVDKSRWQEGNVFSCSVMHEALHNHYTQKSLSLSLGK
light: B3 light with L30K
notes: Expressed in CHO-S cells
- EC50 (read off the curve) [4]: ~0.2 µg/mL
- Kd [6]: 0.313 nM
- koff [6]: 1.37e-05 s⁻¹
- kon [6]: 43500 M⁻¹ s⁻¹
- IC50 (read off the curve) (Tag1-LAG3 protein): ~2 µg/mL
- EC50 (read off the curve) [5]: ~0.4 µg/mL
- EC50 (read off the curve) [7]: ~0.01 µg/mL
- Kd [8]: 1.42 nM
- koff [8]: 3.09e-05 s⁻¹
- kon [8]: 21700 M⁻¹ s⁻¹
- IC50 (read off the curve) [9]: ~0.5 µg/mL
- IC50 (read off the curve) [10]: ~1 µg/mL
